Test results as given in US20070071746A1 (AstraZeneca / MedImmune, published 2007).

B1: Z8 (antibody, V domains shown)
VH: EVQLLESGGGLVQPGGSLRLSCAASGFTFSPYLMWWVRQAPGKGLEWVSYISSSGGYTSYADSVKGRFTISRDNSKNTLYLQMNSLRAEDTAMYYCARMYYYDSSGYPSFDYWGQGTLVTVSS
VL: QSALTQPPSASGTPGQRVTISCSGSGSNIGSNTVNWYQQLPGTAPKLLIYSSNQRPSGVSDRFSGSKSVASASLAINGLQSEDEADYYCAGWDDSLNGPVFGGGTKLTVL
notes: Fully human anti-AMCase antibody from phage display, converted to full length IgG
B2: Z1 (antibody, V domains shown)
VH: EVQLLESGGGLVQPGGSLRLSCAASGFTFSFYRMAWVRQAPGKGLEWVSRISSSGGPTMYADSVKGRFTISRDNSKNTLYLQMNSLRAEDTAVYYCTTEKQYAGVTFESWGQGTLVTVSS
VL: DIQMTQSPATLSLSPGERATLSCRASQSVSSYLAWYQQKPGQAPRLLIYDASNRATGIPARFSGSGSGTDFTLTISSLEPEDFAVYYCQQRSNSPTFGGGTKVEIK
notes: as for B1

How the values were obtained:
[1] = molecular target: T1, mouse AMCase truncated form lacking the C-terminal chitin binding domain (mouse, UniProt Q91XA9 22-398, limits assumed); assay: ELISA
T1 construct: also called mAMCase TR

[2] = molecular target: T2, mouse chitotriosidase (mouse, UniProt Q9D7Q1 22-464); assay: ELISA
T2 construct: Recombinant from HEK293; non-tagged versions also made; also called mChT; mouse ChT

[3] = molecular target: T3, Ym1 (mouse, UniProt O35744 22-398); assay: ELISA
T3 construct: Recombinant from HEK293; non-tagged versions also made; also called chitinase 3-like 3; ECF-L

[4] = molecular target: T4, Ym2 (mouse, UniProt Q91Z98 22-402); assay: ELISA
T4 construct: Recombinant from HEK293; non-tagged versions also made; also called chitinase 3-like 4

[5] = molecular target: T5, mouse YKL-40/BRP-39 (mouse, UniProt Q61362 30-389); assay: ELISA
T5 construct: Recombinant from HEK293; non-tagged versions also made; also called mYKL40/BRP39; mYKL-40

[6] = molecular target: T6, human AMCase C-terminally truncated, lacking the chitin binding domain (human, UniProt Q9BZP6 22-398, limits assumed); assay: ELISA
T6 construct: Biotin labeled in the galectin ELISA; also called hAMCase TR

[7] = molecular target: T7, human chitotriosidase (human, UniProt Q13231 22-466); assay: ELISA
T7 construct: Recombinant from HEK293; non-tagged versions also made; also called hChT; ChT

[8] = molecular target: T8, human YKL-39 (human, UniProt Q15782 27-390); assay: ELISA
T8 construct: Recombinant from HEK293; non-tagged versions also made; also called hYKL-39; chondrocyte protein 39
T8 sequence: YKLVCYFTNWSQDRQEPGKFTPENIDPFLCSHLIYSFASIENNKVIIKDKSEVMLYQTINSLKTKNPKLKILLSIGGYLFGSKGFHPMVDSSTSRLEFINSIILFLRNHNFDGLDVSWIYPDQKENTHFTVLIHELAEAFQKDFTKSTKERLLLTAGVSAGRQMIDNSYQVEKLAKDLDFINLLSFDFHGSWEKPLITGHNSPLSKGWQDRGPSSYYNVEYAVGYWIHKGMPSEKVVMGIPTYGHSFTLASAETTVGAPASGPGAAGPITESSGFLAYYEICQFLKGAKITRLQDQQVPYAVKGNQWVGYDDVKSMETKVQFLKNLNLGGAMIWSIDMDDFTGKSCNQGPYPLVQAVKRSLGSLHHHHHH

[9] = molecular target: T9, human YKL-40 (human, UniProt P36222 22-383); assay: ELISA
T9 construct: Recombinant from HEK293; non-tagged versions also made; also called hYKL-40; chitinase 3-like 1

[10] = molecular target: T10, mouse acidic mammalian chitinase (AMCase), full length (mouse, UniProt Q91XA9 22-473); assay: ELISA; + = 0.20 to 0.99 OD at 62.5 ng/ml
T10 construct: Recombinant, secreted from HEK293 cells and purified by its His tag; Biotin labeled in the galectin ELISA; also called mAMCase; mouse AMCase

[11] = molecular target: T11, mouse AMCase E140A (mouse, UniProt Q91XA9 22-473); assay: ELISA; + = 0.20 to 0.99 OD at 62.5 ng/ml
T11 construct: Full length point mutant without chitinase activity; also called mAMCase E140A

[12] = molecular target: T12, mouse AMCase D136A (mouse, UniProt Q91XA9 22-473); assay: ELISA; ++ = 1.00 to 2.49 OD at 62.5 ng/ml
T12 construct: Full length point mutant without chitinase activity; also called mAMCase D136A

[13] = molecular target: T4, Ym2; assay: ELISA; + = 0.20 to 0.99 OD at 62.5 ng/ml
[14] = molecular target: T8, human YKL-39; assay: ELISA; + = 0.20 to 0.99 OD at 62.5 ng/ml
[15] = molecular target: T10, mouse acidic mammalian chitinase …; assay: ELISA; ++ = 1.00 to 2.49 OD at 62.5 ng/ml
[16] = molecular target: T1, mouse AMCase truncated form lacking the …; assay: ELISA; ++ = 1.00 to 2.49 OD at 62.5 ng/ml

T10 sequence (Q91XA9 other isoform, or with tags, fused parts or gaps limits assumed): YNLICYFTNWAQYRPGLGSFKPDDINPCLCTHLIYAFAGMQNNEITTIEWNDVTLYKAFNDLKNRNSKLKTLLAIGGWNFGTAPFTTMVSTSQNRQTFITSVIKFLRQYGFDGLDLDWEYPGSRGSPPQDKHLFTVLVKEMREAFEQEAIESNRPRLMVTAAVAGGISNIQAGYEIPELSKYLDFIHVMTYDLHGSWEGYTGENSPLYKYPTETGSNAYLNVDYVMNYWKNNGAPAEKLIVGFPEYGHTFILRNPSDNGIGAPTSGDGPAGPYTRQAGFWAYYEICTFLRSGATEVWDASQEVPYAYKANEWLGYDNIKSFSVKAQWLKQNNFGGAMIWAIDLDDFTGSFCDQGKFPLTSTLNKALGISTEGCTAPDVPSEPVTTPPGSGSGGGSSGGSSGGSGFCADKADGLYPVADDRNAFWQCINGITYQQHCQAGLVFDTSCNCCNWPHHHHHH
T5 sequence (Q61362 other isoform, or with tags, fused parts or gaps limits assumed): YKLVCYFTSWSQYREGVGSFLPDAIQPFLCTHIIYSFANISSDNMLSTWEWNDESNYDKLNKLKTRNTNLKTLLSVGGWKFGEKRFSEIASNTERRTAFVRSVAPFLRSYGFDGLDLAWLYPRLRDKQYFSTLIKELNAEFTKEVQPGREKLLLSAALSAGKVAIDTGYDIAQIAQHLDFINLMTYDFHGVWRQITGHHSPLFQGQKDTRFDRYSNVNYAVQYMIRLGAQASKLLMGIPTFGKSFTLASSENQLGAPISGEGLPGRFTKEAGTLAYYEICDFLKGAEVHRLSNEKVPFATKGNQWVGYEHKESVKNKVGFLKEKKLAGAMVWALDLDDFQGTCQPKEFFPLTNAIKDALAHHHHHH
T11 sequence (Q91XA9 22-473 E140A limits assumed): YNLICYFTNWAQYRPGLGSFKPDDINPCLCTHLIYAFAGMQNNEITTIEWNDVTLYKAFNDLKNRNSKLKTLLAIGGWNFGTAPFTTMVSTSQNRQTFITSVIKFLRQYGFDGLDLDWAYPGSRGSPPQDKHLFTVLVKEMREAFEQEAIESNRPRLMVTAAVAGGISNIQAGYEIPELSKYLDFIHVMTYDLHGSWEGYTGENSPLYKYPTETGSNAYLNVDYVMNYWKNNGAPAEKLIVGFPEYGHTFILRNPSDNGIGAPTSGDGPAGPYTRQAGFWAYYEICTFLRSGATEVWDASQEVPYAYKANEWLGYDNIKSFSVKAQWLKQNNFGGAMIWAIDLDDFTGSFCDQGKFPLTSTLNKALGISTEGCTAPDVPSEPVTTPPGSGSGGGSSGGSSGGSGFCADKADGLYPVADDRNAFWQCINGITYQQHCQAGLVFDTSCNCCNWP
T1 sequence (Q91XA9 22-398 limits assumed): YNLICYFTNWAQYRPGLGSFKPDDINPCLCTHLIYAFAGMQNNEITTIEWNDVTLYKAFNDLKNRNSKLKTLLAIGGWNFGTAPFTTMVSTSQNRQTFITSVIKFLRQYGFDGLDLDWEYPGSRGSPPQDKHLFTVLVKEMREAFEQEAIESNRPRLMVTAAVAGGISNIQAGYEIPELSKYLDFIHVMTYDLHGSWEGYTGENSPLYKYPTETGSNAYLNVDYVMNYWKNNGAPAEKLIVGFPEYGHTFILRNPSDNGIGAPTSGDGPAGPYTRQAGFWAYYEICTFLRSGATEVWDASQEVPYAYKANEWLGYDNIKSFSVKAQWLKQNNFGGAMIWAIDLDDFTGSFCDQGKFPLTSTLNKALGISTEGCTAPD
T4 sequence (Q91Z98 other isoform, or with tags, fused parts or gaps limits assumed): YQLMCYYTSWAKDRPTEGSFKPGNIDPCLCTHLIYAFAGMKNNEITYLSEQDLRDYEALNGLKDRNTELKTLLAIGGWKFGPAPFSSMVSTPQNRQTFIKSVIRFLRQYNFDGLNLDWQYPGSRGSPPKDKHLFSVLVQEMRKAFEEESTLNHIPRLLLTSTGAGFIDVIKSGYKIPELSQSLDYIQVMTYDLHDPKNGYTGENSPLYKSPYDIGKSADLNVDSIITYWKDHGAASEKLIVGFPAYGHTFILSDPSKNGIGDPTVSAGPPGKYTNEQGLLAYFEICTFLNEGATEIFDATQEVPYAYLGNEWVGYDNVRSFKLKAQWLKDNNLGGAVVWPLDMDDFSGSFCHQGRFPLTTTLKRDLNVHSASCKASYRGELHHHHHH
T9 sequence (P36222 other isoform, or with tags, fused parts or gaps limits assumed): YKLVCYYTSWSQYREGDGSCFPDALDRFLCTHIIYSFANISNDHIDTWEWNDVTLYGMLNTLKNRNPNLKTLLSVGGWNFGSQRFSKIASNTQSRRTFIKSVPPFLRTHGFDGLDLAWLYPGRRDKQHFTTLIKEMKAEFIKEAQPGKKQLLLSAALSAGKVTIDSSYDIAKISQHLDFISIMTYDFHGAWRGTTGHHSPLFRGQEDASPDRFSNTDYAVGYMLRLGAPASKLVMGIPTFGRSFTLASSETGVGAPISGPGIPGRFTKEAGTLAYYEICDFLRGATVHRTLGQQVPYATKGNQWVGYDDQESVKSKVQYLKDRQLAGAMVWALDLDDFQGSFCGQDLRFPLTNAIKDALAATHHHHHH
T12 sequence (Q91XA9 22-473 D136A limits assumed): as the sequence (Q91XA9 22-473 E140A limits assumed) above, with D115A, A119E counted along it
T2 sequence (Q9D7Q1 other isoform, or with tags, fused parts or gaps limits assumed): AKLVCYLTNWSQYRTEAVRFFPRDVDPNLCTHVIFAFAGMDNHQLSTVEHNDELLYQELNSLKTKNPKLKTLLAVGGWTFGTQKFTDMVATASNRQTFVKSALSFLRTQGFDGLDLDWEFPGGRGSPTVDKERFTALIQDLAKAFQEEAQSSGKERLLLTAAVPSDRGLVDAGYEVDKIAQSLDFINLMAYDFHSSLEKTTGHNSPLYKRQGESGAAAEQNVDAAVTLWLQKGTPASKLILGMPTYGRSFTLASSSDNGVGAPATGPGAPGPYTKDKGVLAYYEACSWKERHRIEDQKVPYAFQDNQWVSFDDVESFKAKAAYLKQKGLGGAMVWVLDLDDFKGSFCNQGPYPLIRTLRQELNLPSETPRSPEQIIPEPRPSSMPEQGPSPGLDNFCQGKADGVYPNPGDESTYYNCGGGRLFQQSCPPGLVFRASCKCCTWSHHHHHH
T6 sequence (Q9BZP6 22-398 limits assumed): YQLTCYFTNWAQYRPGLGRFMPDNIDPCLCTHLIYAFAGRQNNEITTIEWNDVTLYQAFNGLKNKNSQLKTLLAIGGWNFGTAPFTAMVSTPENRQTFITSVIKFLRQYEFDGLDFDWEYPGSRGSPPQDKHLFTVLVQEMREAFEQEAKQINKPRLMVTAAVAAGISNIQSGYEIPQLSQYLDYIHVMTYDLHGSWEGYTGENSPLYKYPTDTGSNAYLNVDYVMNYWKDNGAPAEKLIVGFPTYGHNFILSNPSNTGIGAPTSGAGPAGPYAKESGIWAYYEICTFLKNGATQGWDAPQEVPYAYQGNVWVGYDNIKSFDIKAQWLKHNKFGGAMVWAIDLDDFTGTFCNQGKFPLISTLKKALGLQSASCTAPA
T3 sequence (O35744 other isoform, or with tags, fused parts or gaps limits assumed): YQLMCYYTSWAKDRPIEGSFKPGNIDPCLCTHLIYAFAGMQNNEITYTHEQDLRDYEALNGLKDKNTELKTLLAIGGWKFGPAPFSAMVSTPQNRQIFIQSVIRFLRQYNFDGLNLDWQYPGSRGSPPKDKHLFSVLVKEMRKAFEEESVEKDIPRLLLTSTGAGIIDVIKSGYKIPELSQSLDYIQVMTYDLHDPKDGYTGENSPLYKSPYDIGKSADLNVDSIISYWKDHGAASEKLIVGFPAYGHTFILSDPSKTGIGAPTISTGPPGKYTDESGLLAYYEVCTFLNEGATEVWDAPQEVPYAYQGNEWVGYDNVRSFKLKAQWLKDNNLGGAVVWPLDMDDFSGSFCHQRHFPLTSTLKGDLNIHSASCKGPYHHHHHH
T7 sequence (Q13231 other isoform, or with tags, fused parts or gaps limits assumed): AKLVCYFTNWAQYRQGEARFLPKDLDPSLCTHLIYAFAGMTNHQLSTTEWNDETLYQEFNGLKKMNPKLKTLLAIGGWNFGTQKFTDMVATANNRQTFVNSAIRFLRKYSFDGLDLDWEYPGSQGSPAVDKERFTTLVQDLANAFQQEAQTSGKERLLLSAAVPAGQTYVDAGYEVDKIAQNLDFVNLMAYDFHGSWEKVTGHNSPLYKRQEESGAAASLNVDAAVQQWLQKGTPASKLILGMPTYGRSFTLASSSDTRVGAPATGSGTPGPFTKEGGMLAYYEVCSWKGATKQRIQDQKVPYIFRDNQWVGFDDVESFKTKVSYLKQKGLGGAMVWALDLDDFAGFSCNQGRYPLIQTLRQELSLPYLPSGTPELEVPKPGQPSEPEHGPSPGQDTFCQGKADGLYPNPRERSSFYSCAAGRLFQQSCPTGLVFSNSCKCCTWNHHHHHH

Binder	binding result [1]	binding result [2]	binding result [3]	binding result [4]	binding result [5]	binding result [6]	binding result [7]	binding result [8]	binding result [9]	ELISA OD at 62.5 ng/ml antibody [10] [od]	ELISA OD at 62.5 ng/ml antibody [11] [od]	ELISA OD at 62.5 ng/ml antibody [12] [od]	binding result [13]	ELISA OD at 62.5 ng/ml antibody [14] [od]	ELISA OD at 62.5 ng/ml antibody [15] [od]	ELISA OD at 62.5 ng/ml antibody [16] [od]
B1	no binding	no binding	no binding	no binding	no binding	no binding	no binding	no binding	no binding	0.2 to 0.99	0.2 to 0.99	1 to 2.49	–	–	–	–
B2	–	–	–	–	no binding	–	–	–	no binding	–	0.2 to 0.99	–	binds	0.2 to 0.99	1 to 2.49	1 to 2.49
